This note sets out measurements from the supplement of paper PMC10567573.

To fix the notation:
B1: WEE1 (parent)
chain: INPFTPDSLLLHSSGQCRRRKRTY
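Also: lentivirally expressed fusions sorted by FACS into six bins by GFP to DsRed ratio, PSI derived from sequencing read proportions per bin multiplied by bin number.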

In the series the parent is B1. Description: protein stability index of a GFP-peptide fusion (GPS, HEK-293T) (PSI 1-6); higher = more stable. The conditions noted are these: c terminus: a fixed tail appended.
On to INPFTPDSLLLHSSGQCRRKKRTY, for which the protein stability index amounted to 3.23.

Regarding INPFTPDSLLLHSSGQCRRIKRTY, the protein stability index amounted to 2.95.

On to INPFTPDSLLLHSSGQCRRQKRTY, for which the protein stability index stood at 2.81.

On to INPFTPDSLLLHSSGQCRRVKRTY, for which the protein stability index came out at 2.94.

Regarding INPFTPDSLLLHSSGQCRRNKRTY, the protein stability index was 3.45.

Regarding INPFTPDSLLLHSSGQCRRPKRTY, the protein stability index worked out at 3.12.

For the variant INPFTPDSLLLHSSGQCRRGKRTY, the protein stability index is 3.41.

For the variant INPFTPDSLLLHSSGQCRRDKRTY, the protein stability index came out at 3.12.

In the case of INPFTPDSLLLHSSGQCRRWKRTY, the protein stability index worked out at 1.82.

On to INPFTPDSLLLHSSGQCRRFKRTY, for which the protein stability index came out at 2.48.

As to INPFTPDSLLLHSSGQCRRYKRTY, the protein stability index is 2.61.

For INPFTPDSLLLHSSGQCRRHKRTY, the protein stability index amounted to 3.62.

As for INPFTPDSLLLHSSGQCRRCKRTY, the protein stability index worked out at 2.5.

In the case of INPFTPDSLLLHSSGQCRRAKRTY, the protein stability index was 3.08.

Take INPFTPDSLLLHSSGQCRRMKRTY: the protein stability index amounted to 2.85.

As to INPFTPDSLLLHSSGQCRRSKRTY, the protein stability index was 2.97.

As to INPFTPDSLLLHSSGQCRREKRTY, the protein stability index was found to be 3.15.

As for INPFTPDSLLLHSSGQCRRLKRTY, the protein stability index turned out to be 2.75.

Turning to INPFTPDSLLLHSSGQCRRTKRTY, the protein stability index is 3.32.

Regarding INPFTPDSLLLHSSGQCRARKRTY, the protein stability index is 3.08.

For INPFTPDSLLLHSSGQCRGRKRTY, the protein stability index stood at 3.34.

Regarding INPFTPDSLLLHSSGQCRSRKRTY, the protein stability index is 3.78.

For INPFTPDSLLLHSSGQCRQRKRTY, the protein stability index amounted to 3.27.

For the variant INPFTPDSLLLHSSGQCRWRKRTY, the protein stability index came to 2.66.

On to INPFTPDSLLLHSSGQCRPRKRTY, for which the protein stability index stood at 3.03.

For the variant INPFTPDSLLLHSSGQCRKRKRTY, the protein stability index turned out to be 3.32.

With INPFTPDSLLLHSSGQCRCRKRTY, the protein stability index is 3.01.

As for INPFTPDSLLLHSSGQCRFRKRTY, the protein stability index stood at 2.62.

As for INPFTPDSLLLHSSGQCRERKRTY, the protein stability index turned out to be 3.8.

Turning to INPFTPDSLLLHSSGQCRHRKRTY, the protein stability index worked out at 3.32.

For the variant INPFTPDSLLLHSSGQCRYRKRTY, the protein stability index stood at 2.83.

On to INPFTPDSLLLHSSGQCRIRKRTY, for which the protein stability index stood at 3.88.

INPFTPDSLLLHSSGQCRTRKRTY: the protein stability index was found to be 2.78.

With INPFTPDSLLLHSSGQCRMRKRTY, the protein stability index amounted to 2.91.

Consider INPFTPDSLLLHSSGQCRLRKRTY, for which the protein stability index stood at 3.03.

As to INPFTPDSLLLHSSGQCRVRKRTY, the protein stability index was 2.69.

Consider INPFTPDSLLLHSSGQCRDRKRTY, for which the protein stability index is 3.52.

For INPFTPDSLLLHSSGQCRNRKRTY, the protein stability index is 3.38.

As to INPFTPDSLLLHSSGQCRRRVRTY, the protein stability index stood at 3.16.

For INPFTPDSLLLHSSGQCRRRDRTY, the protein stability index amounted to 2.9.

With INPFTPDSLLLHSSGQCRRRRRTY, the protein stability index amounted to 3.11.

For the variant INPFTPDSLLLHSSGQCRRRLRTY, the protein stability index amounted to 2.72.

INPFTPDSLLLHSSGQCRRRCRTY: the protein stability index came to 2.02.

For the variant INPFTPDSLLLHSSGQCRRRMRTY, the protein stability index worked out at 3.25.

Take INPFTPDSLLLHSSGQCRRRNRTY: the protein stability index stood at 3.59.

For the variant INPFTPDSLLLHSSGQCRRRHRTY, the protein stability index was found to be 3.38.

In the case of INPFTPDSLLLHSSGQCRRRYRTY, the protein stability index came out at 2.48.

As for INPFTPDSLLLHSSGQCRRRARTY, the protein stability index is 3.77.

For INPFTPDSLLLHSSGQCRRRPRTY, the protein stability index turned out to be 3.08.

As to INPFTPDSLLLHSSGQCRRRFRTY, the protein stability index turned out to be 2.42.

As to INPFTPDSLLLHSSGQCRRRQRTY, the protein stability index is 2.46.

Take INPFTPDSLLLHSSGQCRRRSRTY: the protein stability index was 3.18.

Turning to INPFTPDSLLLHSSGQCRRRIRTY, the protein stability index came out at 3.

Consider INPFTPDSLLLHSSGQCRRRWRTY, for which the protein stability index was 2.4.

As for INPFTPDSLLLHSSGQCRRRTRTY, the protein stability index turned out to be 2.83.

In the case of INPFTPDSLLLHSSGQCRRRGRTY, the protein stability index amounted to 3.58.

Turning to INPFTPDSLLLHSSGQCRRRERTY, the protein stability index is 3.16.

With INPFTPDSLLLHSSGYCRRRKRTY, the protein stability index turned out to be 3.52.

With INPFTPDSLLLHSSGVCRRRKRTY, the protein stability index is 2.97.

With INPFTPDSLLLHSSGRCRRRKRTY, the protein stability index amounted to 3.95.

Turning to INPFTPDSLLLHSSGSCRRRKRTY, the protein stability index was found to be 3.61.

Turning to INPFTPDSLLLHSSGICRRRKRTY, the protein stability index came to 3.56.

Regarding INPFTPDSLLLHSSGMCRRRKRTY, the protein stability index worked out at 2.92.

Regarding INPFTPDSLLLHSSGHCRRRKRTY, the protein stability index amounted to 3.06.

For INPFTPDSLLLHSSGGCRRRKRTY, the protein stability index was 3.5.

Take INPFTPDSLLLHSSGTCRRRKRTY: the protein stability index was found to be 3.41.

In the case of INPFTPDSLLLHSSGPCRRRKRTY, the protein stability index was 3.92.

Take INPFTPDSLLLHSSGKCRRRKRTY: the protein stability index came to 3.69.

Turning to INPFTPDSLLLHSSGFCRRRKRTY, the protein stability index was determined as 2.65.

INPFTPDSLLLHSSGLCRRRKRTY: the protein stability index came to 2.81.

For INPFTPDSLLLHSSGWCRRRKRTY, the protein stability index was 2.51.

With INPFTPDSLLLHSSGNCRRRKRTY, the protein stability index turned out to be 4.03.

Regarding INPFTPDSLLLHSSGQCDRRKRTY, the protein stability index stood at 3.78.

With INPFTPDSLLLHSSGQCVRRKRTY, the protein stability index is 3.83.

For INPFTPDSLLLHSSGQCIRRKRTY, the protein stability index turned out to be 2.86.

As to INPFTPDSLLLHSSGQCKRRKRTY, the protein stability index was 3.26.

As to INPFTPDSLLLHSSGQCERRKRTY, the protein stability index was 3.67.

As for INPFTPDSLLLHSSGQCCRRKRTY, the protein stability index worked out at 2.94.

For the variant INPFTPDSLLLHSSGQCSRRKRTY, the protein stability index came out at 3.41.

For the variant INPFTPDSLLLHSSGQCMRRKRTY, the protein stability index was 2.81.

For INPFTPDSLLLHSSGQCQRRKRTY, the protein stability index stood at 3.63.

INPFTPDSLLLHSSGQCWRRKRTY: the protein stability index came out at 2.29.

INPFTPDSLLLHSSGQCLRRKRTY: the protein stability index came to 3.2.

Consider INPFTPDSLLLHSSGQCGRRKRTY, for which the protein stability index worked out at 3.31.

For the variant INPFTPDSLLLHSSGQCTRRKRTY, the protein stability index came to 3.48.

Turning to INPFTPDSLLLHSSGQCARRKRTY, the protein stability index was 3.46.

In the case of INPFTPDSLLLHSSGQCFRRKRTY, the protein stability index is 2.9.

In the case of INPFTPDSLLLHSSGQCYRRKRTY, the protein stability index came out at 3.58.

On to INPFTPDSLLLHSSGQCHRRKRTY, for which the protein stability index was 3.39.

In the case of INPFTPDSLLLHSSGQCNRRKRTY, the protein stability index was determined as 3.12.

Regarding INPFTPDSLLLHSSGQCPRRKRTY, the protein stability index was found to be 3.57.

On to INPFTPDSLLLHSSGQCRRRKRTE, for which the protein stability index came out at 3.13.

As to INPFTPDSLLLHSSGQCRRRKRTG, the protein stability index turned out to be 4.07.

For the variant INPFTPDSLLLHSSGQCRRRKRTT, the protein stability index amounted to 3.96.
